The numbers were not newly measured in PMC7663405, which cites them from elsewhere.

The series concerns the target CD80 (Homo sapiens) (UniProt P33681).
UniProt P33681, sequence (P33681 35-242): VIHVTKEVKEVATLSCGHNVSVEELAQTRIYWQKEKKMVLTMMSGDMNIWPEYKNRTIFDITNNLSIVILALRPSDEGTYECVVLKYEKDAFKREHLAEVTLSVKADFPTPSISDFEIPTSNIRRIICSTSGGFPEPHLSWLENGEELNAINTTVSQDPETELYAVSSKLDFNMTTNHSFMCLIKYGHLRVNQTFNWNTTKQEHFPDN

Turning to PD-L1 (from UniProt Q9NZQ7), the dissociation constant (Kd) (commonly the equilibrium constant for the complex coming apart) was 1.9 µM.
